Experimental data: paper PMC9452428, “Molecular study on recombinant cold-adapted, detergent- and alkali stable esterase (EstRag) from Lysinibacillus sp.: a member of family VI” (World Journal of Microbiology & Biotechnology, 2022)

Tested on: CC(=O)Oc1ccc([N+](=O)[O-])cc1
Assay: purified protein
Conditions: 50 mM Tris-HCl pH 8.0, room temperature, substrate 0.0015-3.0 mM

EstRag (Lysinibacillus sp. YS11)
Km: 31 µM | kcat: 20.4 s⁻¹ | kcat/Km: 658000 M⁻¹ s⁻¹
